Assay results as given in patent publication EP4722246A1, “TEM8-TARGETED ANTIBODY OR ANTIGEN-BINDING FRAGMENT THEREOF, AND USE THEREOF” (Inxmed (Nanjing) Co., Ltd., priority 2023, dated 2024).

B1: phage clone 3B3 (scFv on phage) (scFv, V domains shown)
VH: EVQLVQSGGGLVKPGGSLRLSCAASGFTFSSYSMNWVRQAPGKGLEWVSSISSSSSYIYYADSVKGRFTISRDNAKNSLYLQMNSLRAEDTAVYYCARVRPPYGMDVWGQGTLVTVSS
VL: NIQMTQSPSSVSASVGDTVTISCRASQGISNWLGWYQQRPGEAPKLLIYAASHLQSGVPSRFSGSGSGTDFVLTITSLQPEDFATYYCQQSNSFPLAFGGGTKLEIK
B2: phage clone 7E3 (scFv on phage) (scFv, V domains shown)
VH: QVQLVESGGGLVNPGGSLRLSCAVSGFTSSGFSINWVRQAPGKGLEWVSSISGIGDSIFYADSVKGRFTISRDNAKNLVFLQMNSVKAEDTAVYYCVRDKWGWGTYSLFDYWGQGTLVTVSS
VL: QAVLTQPPSASGTPGQRVTISCSGSSSNIASNVVSWYQQLPGTAPKVLIYSNNRRPSGVPDRFSGSKSGASASLAISGLQSDDETHYYCAAWDDSLKGPVFGGGTQLTVL
B3: phage clone 6A6 (scFv on phage) (scFv, V domains shown)
VH: EVQLVESGGGVVQPGGSLRLSCAASGFTFDDYAMHWVRQAPGKGLEWVSLISGDGGSTYYADSVKGRFTISRDNSKNSLYLQMNSLKASDTAMYYCARPRWGRYSSSWPFDYWGQGTLVTVSS
VL: QSALTQPASVSGSPGQSITISCTGTSSDVGTYNYVSWYQQHPGKAPKLMIYDVTDRPSGISNRFSGSKSGNTASLTISGLQAEDEGNYYCSSYTSNRSWVFGGGTKLTVL
B4: phage clone 11B7 (scFv on phage) (scFv, V domains shown)
VH: QVQLVQSGGGVVQPGRPLRLSCAASGFNLGSYAMSWVRQAPGKGLEWVSAISGSGGSTYYADSVKGRFTISRDNSKNTLYLQMNSLRAEDTAVYYCAKILGPGNLNYYYYYGMDVWGQGTTVTVSS
VL: SSELTQDPAVSVALGQTVRITCQGDSLRNSYASWYQQKPGQAPVLVIYGNNNRPSGIPDRVSGSRSGNTASLTITGAQAEDEADYYCNSRDSSGNHVVFGGGTELTVL

What follows are binders tested against hTEM8-his antigen (hTEM8 containing 6 His tags) (human) (UniProt Q9H6X2) (assay: phage supernatant ELISA on hTEM8-his).
Chain of hTEM8-his antigen (hTEM8 containing 6 His tags) (human) (Q9H6X2 33-321 limits assumed): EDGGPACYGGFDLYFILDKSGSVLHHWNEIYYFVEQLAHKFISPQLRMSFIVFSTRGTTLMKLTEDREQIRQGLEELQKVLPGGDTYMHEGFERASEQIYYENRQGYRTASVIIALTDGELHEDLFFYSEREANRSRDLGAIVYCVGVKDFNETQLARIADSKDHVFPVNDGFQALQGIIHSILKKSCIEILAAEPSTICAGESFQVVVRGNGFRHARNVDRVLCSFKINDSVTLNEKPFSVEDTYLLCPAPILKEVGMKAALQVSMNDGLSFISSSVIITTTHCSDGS

Going from B1 to B2, the hTEM8-his ELISA (OD450) falls from 2.86 OD450 to 2.5 OD450.

Compared with B3, B4 is lower in hTEM8-his ELISA (OD450): 2.67 OD450 for the first, 2.43 OD450 for the second.
